Measurements reported in patent publication US20250276018A1 (AFFYIMMUNE THERAPEUTICS, published 2025).
Read-outs that look alike come from different tables or passages of the source. One block for each binder: values may come before it.

How the values were obtained:
[1] = target: T1, c-MET on human target cells (human, UniProt P08581 25-1390); test: cell-based or functional assay
[2] = target: T1, c-MET on human target cells; test: cell-based or functional assay; remark: listed apart in the source
[3] = target: T2, AF647 labeled c-met protein (UniProt P08581 25-932, limits assumed, labeled with AlexaFluor 647 (AF647)); test: flow cytometry, AF647-labeled c-met protein titrated on CAR-T cells (Round 1)
T2 construct: Soluble labeled c-met protein titrated on CAR-T cells
T2 sequence (P08581 25-932 limits assumed): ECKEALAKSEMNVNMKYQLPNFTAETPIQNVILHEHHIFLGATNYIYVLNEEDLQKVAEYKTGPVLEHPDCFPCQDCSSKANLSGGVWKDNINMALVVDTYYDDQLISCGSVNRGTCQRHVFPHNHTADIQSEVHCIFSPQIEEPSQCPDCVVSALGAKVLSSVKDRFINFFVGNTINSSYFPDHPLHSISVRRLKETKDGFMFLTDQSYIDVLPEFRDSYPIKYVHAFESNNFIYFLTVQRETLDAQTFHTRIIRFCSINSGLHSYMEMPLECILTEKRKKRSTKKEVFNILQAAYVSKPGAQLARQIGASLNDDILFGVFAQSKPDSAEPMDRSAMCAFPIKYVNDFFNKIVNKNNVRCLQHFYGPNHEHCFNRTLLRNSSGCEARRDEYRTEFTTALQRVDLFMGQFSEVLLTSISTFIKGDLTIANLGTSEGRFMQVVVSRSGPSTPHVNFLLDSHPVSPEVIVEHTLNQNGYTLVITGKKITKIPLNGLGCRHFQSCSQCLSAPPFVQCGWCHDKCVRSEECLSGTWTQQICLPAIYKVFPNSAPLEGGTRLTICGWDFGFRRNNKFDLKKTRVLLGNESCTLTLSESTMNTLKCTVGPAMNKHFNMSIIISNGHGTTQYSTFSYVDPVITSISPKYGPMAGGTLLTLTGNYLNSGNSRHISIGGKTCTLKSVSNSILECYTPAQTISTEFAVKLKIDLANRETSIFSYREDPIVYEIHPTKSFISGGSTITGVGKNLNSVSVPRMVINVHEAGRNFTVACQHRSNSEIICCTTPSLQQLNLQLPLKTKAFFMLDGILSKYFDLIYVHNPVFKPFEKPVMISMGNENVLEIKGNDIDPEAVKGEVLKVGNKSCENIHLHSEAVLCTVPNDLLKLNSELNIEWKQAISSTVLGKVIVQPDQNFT
Protocol: (§1) Binding of labeled c-MET to CAR-T cells expressing the affinity tuned c-MET scFvs was evaluated by transducing lentivirus anti-c-MET CAR particles into human T cells to form c-MET CAR-T cells incubated with AF647-labeled c-MET. […] Following a 48 hr. incubation at 37° C., the culture media was brought up to […] per well and incubated at 37° C. for 10 days.
(§2) Cells were stained on ice for 30 mins and then washed with PBS. After washing, residually bound protein on CAR T cells were measured on a flow cytometer (Beckman, CytoFLEX®). The resulting binding data was fit using a non-linear regression analysis on GraphPad Prism to calculate half effective dose concentration (EC₅₀) values. The results of this analysis are shown in FIGS. 2-5 and Tables 2-5 below.

[4] = target: T1, c-MET on human target cells; test: cell-based or functional assay; remark: listed apart in the source
[5] = target: T1, c-MET on human target cells; test: cell-based or functional assay; remark: listed apart in the source
[6] = target: T1, c-MET on human target cells; test: cell-based or functional assay; remark: listed apart in the source
[7] = target: T1, c-MET on human target cells; test: cell-based or functional assay; remark: listed apart in the source
[8] = target: T2, AF647 labeled c-met protein; test: flow cytometry, EC50 relative to parental Affy7 CAR-T cells (Round 1)
Protocol: as §1, §2

[9] = target: T1, c-MET on human target cells; test: cell-based or functional assay; remark: listed apart in the source
[10] = target: T1, c-MET on human target cells; test: cell-based or functional assay; remark: listed apart in the source
[11] = target: T1, c-MET on human target cells; test: cell-based or functional assay; remark: listed apart in the source
[12] = target: T1, c-MET on human target cells; test: cell-based or functional assay; remark: listed apart in the source
[13] = target: T1, c-MET on human target cells; test: cell-based or functional assay; remark: listed apart in the source
[14] = target: T2, AF647 labeled c-met protein; test: flow cytometry, AF647-labeled c-met protein titrated on CAR-T cells (Round 2)
Protocol: as §1, §2

[15] = target: T1, c-MET on human target cells; test: cell-based or functional assay; remark: listed apart in the source
[16] = target: T1, c-MET on human target cells; test: cell-based or functional assay; remark: listed apart in the source
[17] = target: T1, c-MET on human target cells; test: cell-based or functional assay; remark: listed apart in the source
[18] = target: T1, c-MET on human target cells; test: cell-based or functional assay; remark: listed apart in the source
[19] = target: T1, c-MET on human target cells; test: cell-based or functional assay; remark: listed apart in the source
[20] = target: T2, AF647 labeled c-met protein; test: flow cytometry, EC50 relative to parental Affy6 CAR-T cells (Round 2)
Protocol: as §1, §2

T1 sequence (P08581 25-1390): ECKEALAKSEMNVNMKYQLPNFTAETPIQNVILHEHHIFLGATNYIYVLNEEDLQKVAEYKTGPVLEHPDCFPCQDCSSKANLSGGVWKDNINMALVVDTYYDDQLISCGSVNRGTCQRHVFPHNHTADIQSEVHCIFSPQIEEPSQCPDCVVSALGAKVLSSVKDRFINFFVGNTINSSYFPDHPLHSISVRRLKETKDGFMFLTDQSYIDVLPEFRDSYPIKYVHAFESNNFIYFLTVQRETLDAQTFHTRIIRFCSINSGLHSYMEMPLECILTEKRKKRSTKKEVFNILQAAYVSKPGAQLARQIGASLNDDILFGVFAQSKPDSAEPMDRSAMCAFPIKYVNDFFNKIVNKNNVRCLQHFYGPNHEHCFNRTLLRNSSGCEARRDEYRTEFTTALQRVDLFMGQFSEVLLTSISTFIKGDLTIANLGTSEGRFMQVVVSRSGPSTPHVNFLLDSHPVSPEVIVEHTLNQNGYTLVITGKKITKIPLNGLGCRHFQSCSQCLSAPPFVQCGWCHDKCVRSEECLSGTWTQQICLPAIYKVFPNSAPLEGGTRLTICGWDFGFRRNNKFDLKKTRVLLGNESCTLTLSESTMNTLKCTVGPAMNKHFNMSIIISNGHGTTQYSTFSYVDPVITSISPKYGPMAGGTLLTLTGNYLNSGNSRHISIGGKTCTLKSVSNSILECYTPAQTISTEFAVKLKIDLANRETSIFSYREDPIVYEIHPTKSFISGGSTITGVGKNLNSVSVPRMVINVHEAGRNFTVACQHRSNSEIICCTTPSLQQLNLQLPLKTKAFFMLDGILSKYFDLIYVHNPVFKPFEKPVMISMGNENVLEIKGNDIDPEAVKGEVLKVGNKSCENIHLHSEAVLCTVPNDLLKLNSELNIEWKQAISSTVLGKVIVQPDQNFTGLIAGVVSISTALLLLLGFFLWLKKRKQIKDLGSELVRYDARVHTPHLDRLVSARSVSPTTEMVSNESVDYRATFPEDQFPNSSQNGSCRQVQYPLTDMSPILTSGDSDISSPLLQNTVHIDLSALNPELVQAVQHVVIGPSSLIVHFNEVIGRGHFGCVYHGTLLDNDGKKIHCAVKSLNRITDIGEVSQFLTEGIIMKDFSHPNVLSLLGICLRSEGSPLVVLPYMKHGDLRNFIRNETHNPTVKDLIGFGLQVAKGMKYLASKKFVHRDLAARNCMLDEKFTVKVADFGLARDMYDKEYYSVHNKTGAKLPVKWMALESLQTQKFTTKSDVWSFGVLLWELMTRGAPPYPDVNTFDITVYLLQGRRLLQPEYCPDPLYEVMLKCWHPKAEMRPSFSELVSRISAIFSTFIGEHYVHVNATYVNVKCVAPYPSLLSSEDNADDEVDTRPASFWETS

- EC50 [3]: 3.3 µM
- Fold Change [8]: 66 fold
B1: Affy7-Y6A CAR (other)
chain: GSEQKLISEEDLGSQVQLQQSGPELVRPGASVKMSCRASGYTFTSYWLHWVKQRPGQGLEWIGMIDPSNSDTRFNPNFKDKATLNVDRSSNTAYMLLSSLTSADSAVYYCATAGSYVSPLDYWGQGTSVTVSSGGGGSGGGGSGGGGSDIMMSQSPSSLTVSVGEKVTVSCKSSQSLLYTSSQKNYLAWYQQKPGQSPKLLIYWASTRESGVPDRFTGSGSGTDFTLTITSVKADDLAVYYCQQYYAYPWTFGGGTKLEIKRASTTTPAPRPPTPAPTIASQPLSLRPEACRPAAGGAVHTRGLDFACDFWVLVVVGGVLACYSLLVTVAFIIFWVRSKRSRLLHSDYMNMTPRRPGPTRKHYQPYAPPRDFAAYRSLRVKFSRSADAPAYQQGQNQLYNELNLGRREEYDVLDKRRGRDPEMGGKPRRKNPQEGLYNELQKDKMAEAYSEIGMKGERRRGKGHDGLYQGLSTATKDTYDALHMQALPPR
notes: CAR on transduced human T cells; Y to A in HC CDR3; P2A remnant not included; also called Affy-Y6A; MycT-Affy7-Y6A CAR-SSTR2
- cytotoxicity, Normal Human Colon Cells, 8 hrs [1]: 26.5
- cytotoxicity, Normal Human Colon Cells, 16 hrs [1]: 36.3
- cytotoxicity, Normal Human Colon Cells, 24 hrs [1]: 42.5
- cytotoxicity, Normal Human Colon Cells, 32 hrs [1]: 51.5
- cytotoxicity, Normal Human Colon Cells, 40 hrs [1]: 62.7
- cytotoxicity, Normal Human Colon Cells, 48 hrs [1]: 70.7
- cytotoxicity, Normal Human Kidney Cells, 8 hrs [2]: 15.8
- cytotoxicity, Normal Human Kidney Cells, 16 hrs [2]: 27.1
- cytotoxicity, Normal Human Kidney Cells, 24 hrs [2]: 29.4
- cytotoxicity, Normal Human Kidney Cells, 32 hrs [2]: 31.1
- cytotoxicity, Normal Human Kidney Cells, 40 hrs [2]: 42.6
- cytotoxicity, Normal Human Kidney Cells, 48 hrs [2]: 54.7
- percent cytotoxicity, SNU638, 24 hrs [4]: 79.2%
- percent cytotoxicity, SNU638, 48 hrs [4]: 93.5%
- percent cytotoxicity, SNU638, 72 hrs [4]: 98.7%
- percent cytotoxicity, H1993, 24 hrs [5]: 85.7%
- percent cytotoxicity, H1993, 48 hrs [5]: 96.9%
- percent cytotoxicity, H1993, 72 hrs [5]: 99.2%
- cytotoxicity, Normal Human Liver Cells, 8 hrs [6]: 14.2
- cytotoxicity, Normal Human Liver Cells, 16 hrs [6]: 26.3
- cytotoxicity, Normal Human Liver Cells, 24 hrs [6]: 33.1
- cytotoxicity, Normal Human Liver Cells, 32 hrs [6]: 40.1
- cytotoxicity, Normal Human Liver Cells, 40 hrs [6]: 55
- cytotoxicity, Normal Human Liver Cells, 48 hrs [6]: 65
- percent cytotoxicity, Hs746T, 24 hrs [7]: 88.3%
- percent cytotoxicity, Hs746T, 48 hrs [7]: 98.4%
- percent cytotoxicity, Hs746T, 72 hrs [7]: 98.8%
- cytotoxicity, Normal Human Colon Cells, 8 hrs [9]: 13.1
- cytotoxicity, Normal Human Colon Cells, 16 hrs [9]: 25
- cytotoxicity, Normal Human Colon Cells, 24 hrs [9]: 25.6
- cytotoxicity, Normal Human Colon Cells, 32 hrs [9]: 35.8
- cytotoxicity, Normal Human Colon Cells, 40 hrs [9]: 45.4
- cytotoxicity, Normal Human Colon Cells, 48 hrs [9]: 45.6
- cytotoxicity, Normal Human Lung Cells, 8 hrs [10]: 30.6
- cytotoxicity, Normal Human Lung Cells, 16 hrs [10]: 32.6
- cytotoxicity, Normal Human Lung Cells, 24 hrs [10]: 40.1
- cytotoxicity, Normal Human Lung Cells, 32 hrs [10]: 48.3
- cytotoxicity, Normal Human Lung Cells, 40 hrs [10]: 56.5
- cytotoxicity, Normal Human Lung Cells, 48 hrs [10]: 64
- cytotoxicity, Normal Human Lung Cells, 8 hrs [11]: 13.1
- cytotoxicity, Normal Human Lung Cells, 16 hrs [11]: 31.3
- cytotoxicity, Normal Human Lung Cells, 24 hrs [11]: 47.6
- cytotoxicity, Normal Human Lung Cells, 32 hrs [11]: 50
- cytotoxicity, Normal Human Lung Cells, 40 hrs [11]: 53
- cytotoxicity, Normal Human Lung Cells, 47 hrs [11]: 52.1
- cytotoxicity, Normal Human Liver Cells, 8 hrs [12]: 19.3
- cytotoxicity, Normal Human Liver Cells, 16 hrs [12]: 29.8
- cytotoxicity, Normal Human Liver Cells, 24 hrs [12]: 44.8
- cytotoxicity, Normal Human Liver Cells, 32 hrs [12]: 53.9
- cytotoxicity, Normal Human Liver Cells, 40 hrs [12]: 57.5
- cytotoxicity, Normal Human Liver Cells, 48 hrs [12]: 58.5
- cytotoxicity, Normal Human Kidney Cells, 8 hrs [13]: 29.2
- cytotoxicity, Normal Human Kidney Cells, 16 hrs [13]: 39.3
- cytotoxicity, Normal Human Kidney Cells, 24 hrs [13]: 48.9
- cytotoxicity, Normal Human Kidney Cells, 32 hrs [13]: 53.9
- cytotoxicity, Normal Human Kidney Cells, 40 hrs [13]: 60.5
- cytotoxicity, Normal Human Kidney Cells, 48 hrs [13]: 65.9

- EC50 [14]: 151 µM
- Fold Change [20]: 6900 fold
B2: Affy6-I3G CAR (other)
chain: GSEQKLISEEDLGSQVQLVQSGAEVKKPGASVKVSCKASGYIFTAYTMHWVRQAPGQGLEWMGWIKPNNGLANYAQKFQGRVTMTRDTSISTAYMELSRLRSDDTAVYYCARSEGTTEFDYWGQGTLVTVSSGGGGSGGGGSGGGGSDIVLTQSPDSLAVSLGERATINCKSSESVDSYANSFMHWYQQKPGQPPKLLIYRASTRESGVPDRFSGSGSRTDFTLTISSLQAEDVAVYYCQQSKEDPLTFGGGTKVEIKASTTTPAPRPPTPAPTIASQPLSLRPEACRPAAGGAVHTRGLDFACDFWVLVVVGGVLACYSLLVTVAFIIFWVRSKRSRLLHSDYMNMTPRRPGPTRKHYQPYAPPRDFAAYRSLRVKFSRSADAPAYQQGQNQLYNELNLGRREEYDVLDKRRGRDPEMGGKPRRKNPQEGLYNELQKDKMAEAYSEIGMKGERRRGKGHDGLYQGLSTATKDTYDALHMQALPPR
notes: CAR on transduced human T cells; I to G in HC CDR3; P2A remnant not included; also called MycT-Affy6-I3G CAR-SSTR2
- cytotoxicity, Normal Human Kidney Cells, 8 hrs [15]: 10.1
- cytotoxicity, Normal Human Kidney Cells, 16 hrs [15]: 17.9
- cytotoxicity, Normal Human Kidney Cells, 24 hrs [15]: 17.2
- cytotoxicity, Normal Human Kidney Cells, 32 hrs [15]: 15.8
- cytotoxicity, Normal Human Kidney Cells, 40 hrs [15]: 10.2
- cytotoxicity, Normal Human Kidney Cells, 48 hrs [15]: 14
- cytotoxicity, Normal Human Lung Cells, 8 hrs [16]: 14.8
- cytotoxicity, Normal Human Lung Cells, 16 hrs [16]: 17.3
- cytotoxicity, Normal Human Lung Cells, 24 hrs [16]: 19.5
- cytotoxicity, Normal Human Lung Cells, 32 hrs [16]: 18.4
- cytotoxicity, Normal Human Lung Cells, 40 hrs [16]: 28
- cytotoxicity, Normal Human Lung Cells, 48 hrs [16]: 33.1
- cytotoxicity, Normal Human Liver Cells, 8 hrs [17]: 9.6
- cytotoxicity, Normal Human Liver Cells, 16 hrs [17]: 13.7
- cytotoxicity, Normal Human Liver Cells, 24 hrs [17]: 18.1
- cytotoxicity, Normal Human Liver Cells, 32 hrs [17]: 22.3
- cytotoxicity, Normal Human Liver Cells, 40 hrs [17]: 22.5
- cytotoxicity, Normal Human Liver Cells, 48 hrs [17]: 20.5
- cytotoxicity, Normal Human Colon Cells, 8 hrs [18]: 8.2
- cytotoxicity, Normal Human Colon Cells, 16 hrs [18]: 14.4
- cytotoxicity, Normal Human Colon Cells, 24 hrs [18]: 16.4
- cytotoxicity, Normal Human Colon Cells, 32 hrs [18]: 11.4
- cytotoxicity, Normal Human Colon Cells, 40 hrs [18]: 2
- cytotoxicity, Normal Human Colon Cells, 48 hrs [18]: 10.7
- percent cytotoxicity, H1993, 24 hrs [19]: 32.5%
- percent cytotoxicity, H1993, 48 hrs [19]: 68.1%
- percent cytotoxicity, H1993, 72 hrs [19]: 81.6%

- EC50 [14]: 3.6 µM
- Fold Change [20]: 167 fold
B3: Affy6-I3W CAR (other)
chain: GSEQKLISEEDLGSQVQLVQSGAEVKKPGASVKVSCKASGYIFTAYTMHWVRQAPGQGLEWMGWIKPNNGLANYAQKFQGRVTMTRDTSISTAYMELSRLRSDDTAVYYCARSEWTTEFDYWGQGTLVTVSSGGGGSGGGGSGGGGSDIVLTQSPDSLAVSLGERATINCKSSESVDSYANSFMHWYQQKPGQPPKLLIYRASTRESGVPDRFSGSGSRTDFTLTISSLQAEDVAVYYCQQSKEDPLTFGGGTKVEIKASTTTPAPRPPTPAPTIASQPLSLRPEACRPAAGGAVHTRGLDFACDFWVLVVVGGVLACYSLLVTVAFIIFWVRSKRSRLLHSDYMNMTPRRPGPTRKHYQPYAPPRDFAAYRSLRVKFSRSADAPAYQQGQNQLYNELNLGRREEYDVLDKRRGRDPEMGGKPRRKNPQEGLYNELQKDKMAEAYSEIGMKGERRRGKGHDGLYQGLSTATKDTYDALHMQALPPR
notes: CAR on transduced human T cells; I to W in HC CDR3; P2A remnant not included; also called MycT-Affy6-I3W CAR-SSTR2
- cytotoxicity, Normal Human Kidney Cells, 8 hrs [15]: 23.6
- cytotoxicity, Normal Human Kidney Cells, 16 hrs [15]: 39.4
- cytotoxicity, Normal Human Kidney Cells, 24 hrs [15]: 46
- cytotoxicity, Normal Human Kidney Cells, 32 hrs [15]: 48.6
- cytotoxicity, Normal Human Kidney Cells, 40 hrs [15]: 43.6
- cytotoxicity, Normal Human Kidney Cells, 48 hrs [15]: 39.5
- cytotoxicity, Normal Human Lung Cells, 8 hrs [16]: 14.3
- cytotoxicity, Normal Human Lung Cells, 16 hrs [16]: 20.9
- cytotoxicity, Normal Human Lung Cells, 24 hrs [16]: 30.6
- cytotoxicity, Normal Human Lung Cells, 32 hrs [16]: 34
- cytotoxicity, Normal Human Lung Cells, 40 hrs [16]: 41.2
- cytotoxicity, Normal Human Lung Cells, 48 hrs [16]: 42.7
- cytotoxicity, Normal Human Liver Cells, 8 hrs [17]: 15.1
- cytotoxicity, Normal Human Liver Cells, 16 hrs [17]: 32.4
- cytotoxicity, Normal Human Liver Cells, 24 hrs [17]: 44
- cytotoxicity, Normal Human Liver Cells, 32 hrs [17]: 52.5
- cytotoxicity, Normal Human Liver Cells, 40 hrs [17]: 52.4
- cytotoxicity, Normal Human Liver Cells, 48 hrs [17]: 53.6
- cytotoxicity, Normal Human Colon Cells, 8 hrs [18]: 18.8
- cytotoxicity, Normal Human Colon Cells, 16 hrs [18]: 22.7
- cytotoxicity, Normal Human Colon Cells, 24 hrs [18]: 27
- cytotoxicity, Normal Human Colon Cells, 32 hrs [18]: 29.9
- cytotoxicity, Normal Human Colon Cells, 40 hrs [18]: 30.9
- cytotoxicity, Normal Human Colon Cells, 48 hrs [18]: 38.6
- percent cytotoxicity, H1993, 24 hrs [19]: 74.9%
- percent cytotoxicity, H1993, 48 hrs [19]: 93.5%
- percent cytotoxicity, H1993, 72 hrs [19]: 98.2%
